Test results from doi:10.1101/835280, “Bayesian Modeling Reveals Ultrasensitivity Underlying Metabolic Compensation in the Cyanobacterial Circadian Clock” (bioRxiv, 2019).

T1: KaiA (Synechococcus elongatus PCC 7942, UniProt Q79PF6 1-284)
T1 construct: KaiA, circadian clock protein of Synechococcus elongatus PCC 7942; source: expressed and purified as previously described (Phong et al., 2013), anion exchange on HiTrap Q
T1 sequence (looked up): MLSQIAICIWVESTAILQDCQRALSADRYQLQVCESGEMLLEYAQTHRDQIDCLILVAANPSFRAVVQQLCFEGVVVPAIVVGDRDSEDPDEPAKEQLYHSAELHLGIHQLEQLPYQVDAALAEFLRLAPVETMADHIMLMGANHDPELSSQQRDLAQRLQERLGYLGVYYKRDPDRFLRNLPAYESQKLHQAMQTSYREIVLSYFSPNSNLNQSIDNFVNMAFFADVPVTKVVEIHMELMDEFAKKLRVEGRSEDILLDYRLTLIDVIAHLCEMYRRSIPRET


What was measured:
[1] = target: T1, KaiA; assay: co-IP; immunoprecipitation of KaiB-FLAG from an in vitro clock reaction of purified KaiA, KaiB-FLAG and KaiC (20 mM Tris-HCl pH 8, 150 mM NaCl, 5 mM MgCl2, 0.5 mM EDTA, 10% glycerol), time course; KaiA left in the supernatant read by SDS-PAGE (SYPRO Ruby) against 1.5 uM GFP as internal standard; settings: both partners purified
[2] = target: the molecule itself; assay: SEC; size-exclusion chromatography on a Superdex 75 16/60 prep grade column, last step of the purification of the 15N-labelled KaiA domains

Row | binding result [1] | Binder | stoichiometry N [2]
1 | binds | KaiB-FLAG (natural protein, Synechococcus elongatus PCC 7942, UniProt Q79PF5 1-102, looked up, KaiB, circadian clock protein of Synechococcus elongatus PCC 7942; also called FLAG-tagged KaiB; source: expressed and purified as previously described (Phong et al., 2013), anion exchange on HiTrap Q) MSPRKTYILKLYVAGNTPNSVRALKTLKNILEVEFQGVYALKVIDVLKNPQLAEEDKILATPTLAKVLPLPVRRIIGDLSDREKVLIGLDLLYGELQDSDDF | –
2 | – | C-terminal domain of KaiA (residues 181-284) (domain or fragment, Synechococcus elongatus PCC 7942, UniProt Q79PF6 181-284, looked up, KaiA, Synechococcus elongatus PCC 7942, C-terminal domain, residues 181-284; U-[15N] labelled, grown in deuterated water; also called C-terminal KaiA; C-terminal fragment of KaiA; source: E. coli BL21(DE3), M9 medium with 15N-NH4Cl in 98% D2O, purified (Ni-NTA, SEC on Superdex 75)) NLPAYESQKLHQAMQTSYREIVLSYFSPNSNLNQSIDNFVNMAFFADVPVTKVVEIHMELMDEFAKKLRVEGRSEDILLDYRLTLIDVIAHLCEMYRRSIPRET | 2
